For 37 sequences, protein stability index results are on record in the supplement of paper PMC10567573.

± gives the standard deviation.

A short description of this data set: protein stability index of a GFP-peptide fusion (GPS, HEK-293T) (PSI 1-6); higher = more stable. The note with it: c terminus: a fixed tail appended.
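Note: 24-mer peptide tiles fused after GFP, lentivirally expressed, FACS-sorted into six equal bins by GFP/DsRed ratio, decoded by Illumina sequencing, PSI is the read-weighted mean bin number.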

For the sequence KAPYLCEATHEPAAARIRAQVPDT, the protein stability index was determined as 4.65 ± 0.4 (treatment: DMSO) and 4.2 ± 0.68 (treatment: MLN4924 1 uM, 8 h).

Turning to GYCSNQLAAKALLDQKKQDPRVQD [NET1], the protein stability index came to 4.89 ± 0.23 (treatment: DMSO) and 4.9 ± 0.21 (treatment: MLN4924 1 uM, 8 h). The like results for TIGNLVPQKTYSVKVLAFTSIGDG [PTPRD] were, in that order, 2.39 ± 0.16 and 2 ± 0.33. For the sequence EDEDEDKEEEEEDCSEEYLERQLQ [TAF7L], the protein stability index was 5.636 ± 0.049 (treatment: DMSO) and 5.76 ± 0.18 (treatment: MLN4924 1 uM, 8 h).

For TCADRDNLTRRFSDLGFEVKCFND [CASP6], the protein stability index reads like this: (treatment: DMSO) 2.96 ± 0.32; (treatment: MLN4924 1 uM, 8 h) 3.24 ± 0.21. For the sequence LQLPQLSDLGLLRLCTWLLALSPD [FANCE], the protein stability index is, setting by setting: (treatment: DMSO) 2.89 ± 0.6; (treatment: MLN4924 1 uM, 8 h) 2.37 ± 0.3. For LKQAKELDRERAAANEQLTRAILR [CHCHD3] the same measures were 3.56 ± 0.11 and 3.81 ± 0.2. For VLELHHSKLDTTKALNLLPANTQI [VPS39], the protein stability index is 3.03 ± 0.14 (treatment: DMSO) and 3.12 ± 0.15 (treatment: MLN4924 1 uM, 8 h). On to ALARDLLSETADPFFVLNSDVICD [GMPPB], for which the protein stability index reads like this: (treatment: DMSO) 3.07 ± 0.069; (treatment: MLN4924 1 uM, 8 h) 3.32 ± 0.26. Regarding MRATPLAAPAGSLSRKKRLELDDN [TRIB3], the protein stability index is, setting by setting: (treatment: DMSO) 4.57 ± 0.14; (treatment: MLN4924 1 uM, 8 h) 4.86 ± 0.23. Regarding LCPSRAELDRWLYHLEKQTALLGG [PLEKHN1], the protein stability index was found to be 2.53 ± 0.21 (treatment: DMSO) and 2.62 ± 0.22 (treatment: MLN4924 1 uM, 8 h). Turning to IEQFSESHAIHVEEQSDQSFSSLE [IQUB], the protein stability index reads like this: (treatment: DMSO) 5.1 ± 0.095; (treatment: MLN4924 1 uM, 8 h) 5.14 ± 0.17. Take VTLELSQLSMLPHLADLVSYSIQK [VDR]: the protein stability index was 2.86 ± 0.52 (treatment: DMSO) and 2.91 ± 0.26 (treatment: MLN4924 1 uM, 8 h).

Regarding EGYWLPGDEISIKKKNTNKQEMGT [ZMYND11], the protein stability index was found to be 4.7 ± 0.17 (treatment: DMSO) and 4.58 ± 0.084 (treatment: MLN4924 1 uM, 8 h). Take SVSQDFPGSNLNLLTNNSGTPKDH [ETS2]: the protein stability index by setting is: (treatment: DMSO) 4.8 ± 0.38; (treatment: MLN4924 1 uM, 8 h) 4.83 ± 0.27. For the sequence KTKWTKEDGHRTSTSAVPNLFVPL [ADD1], the protein stability index was 3.27 ± 0.26 (treatment: DMSO) and 3.22 ± 0.28 (treatment: MLN4924 1 uM, 8 h). The like results for RDCLVLNQGYLSEAGASLVDQKLE [PI4K2A] were, in that order, 4.29 ± 0.28 and 4.54 ± 0.11. For VNRRISIVGFGLYGSIHGPTDYQV [BTBD1], the protein stability index (treatment: DMSO) is 2.65 ± 0.77 and the protein stability index (treatment: MLN4924 1 uM, 8 h) turned out to be 2.45 ± 1.1. EPVAAEPKQSGSFRYLQGMLEAGE [PDLIM4]: the protein stability index turned out to be 4.6 ± 0.11 (treatment: DMSO) and 4.6 ± 0.11 (treatment: MLN4924 1 uM, 8 h).

In the case of PYDGNSSDPENWDRKLHSRPRKLY [BTBD10], the protein stability index is, setting by setting: (treatment: DMSO) 3.35 ± 0.24; (treatment: MLN4924 1 uM, 8 h) 3.41 ± 0.34.

Regarding KYVSKELAKEIRVKAEPFIKWLKE [EIF5], the protein stability index (treatment: DMSO) turned out to be 3.08 ± 0.4 and the protein stability index (treatment: MLN4924 1 uM, 8 h) worked out at 3.07 ± 0.46. For EDGHRTSTSAVPNLFVPLNTNPKE [ADD1], the protein stability index is 4.89 ± 0.24 (treatment: DMSO) and 5.07 ± 0.11 (treatment: MLN4924 1 uM, 8 h). TDLAQQQGGGNGQQQQAMSFAILR [KCNA4]: the protein stability index amounted to 3.96 ± 0.1 (treatment: DMSO) and 3.81 ± 0.35 (treatment: MLN4924 1 uM, 8 h).

As for LRNLSDAATKQEGMEGLLGTLVQL [CTNNB1], the protein stability index (treatment: DMSO) was 3.51 ± 0.16 and the protein stability index (treatment: MLN4924 1 uM, 8 h) turned out to be 3.03 ± 0.65.

In the case of GAAESPYGHPAGIDYKTTTILLDG [RAB40B], the protein stability index turned out to be 4 ± 0.067 (treatment: DMSO) and 3.96 ± 0.25 (treatment: MLN4924 1 uM, 8 h). In the case of CAIQASLNQGSVFQEYDTDCEVFR [ZNF449], the protein stability index (treatment: DMSO) stood at 2.79 ± 0.82 and the protein stability index (treatment: MLN4924 1 uM, 8 h) was found to be 2.67 ± 0.48.

On to REAEKQNYLAEHCPPLHIPGSMSE [TNNI2], for which the protein stability index by setting is: (treatment: DMSO) 4.67 ± 0.25; (treatment: MLN4924 1 uM, 8 h) 4.72 ± 0.31. For TSPALLQGTAEEDHVDLSLSCTLV [CDKN1A], the protein stability index reads like this: (treatment: DMSO) 3.85 ± 0.13; (treatment: MLN4924 1 uM, 8 h) 3.85 ± 0.18. For KKDKDISKEKDTQNQNITLDCEGT [KMT2E], the protein stability index reads like this: (treatment: DMSO) 5.23 ± 0.26; (treatment: MLN4924 1 uM, 8 h) 5.49 ± 0.28. FFVANKYWRYDEYKRSMDPGYPKM [MMP1]: the protein stability index by setting is: (treatment: DMSO) 2.15 ± 0.33; (treatment: MLN4924 1 uM, 8 h) 2.16 ± 0.33. As to TAEKRKRLGELFNPYYDPLQWKSS [CHGB], the protein stability index turned out to be 2.54 ± 0.17 (treatment: DMSO) and 2.93 ± 0.34 (treatment: MLN4924 1 uM, 8 h).

Regarding VEILMILFAFMLVYPKEFHLNRGN [PPEF2], the protein stability index (treatment: MLN4924 1 uM, 8 h) came out at 3.58 ± 0.62. Take STTEWNDETLYQEFNGLKKMNPKL [CHIT1]: the protein stability index (treatment: DMSO) came to 4.2 ± 0.2 and the protein stability index (treatment: MLN4924 1 uM, 8 h) is 4.54 ± 0.2. As for RPAQAIGTQPRATKHKCRQLTKAS [SPACA9], the protein stability index (treatment: DMSO) was 4.47 ± 0.16 and the protein stability index (treatment: MLN4924 1 uM, 8 h) turned out to be 4.44 ± 0.34.

Turning to RGAPAVQQNIPSTLLQDHENQRLF [WAS], the protein stability index reads like this: (treatment: DMSO) 4.25 ± 0.2; (treatment: MLN4924 1 uM, 8 h) 4.29 ± 0.15. For PPSNFLEIDIFNPQTVGVGRARFT [SNX12] the same measures were 3.27 ± 0.34 and 3.27 ± 0.21. For AFQNDVYEWARDHRAHHKFSETHA [SCD] the same measures were 2.65 ± 0.22 and 2.69 ± 0.33.
